Measurements: article PMC4446444, “Stable complex formation of CENP-B with the CENP-A nucleosome”

T1: CENP-B DBD (Homo sapiens, UniProt P07199 1-129)
T1 sequence: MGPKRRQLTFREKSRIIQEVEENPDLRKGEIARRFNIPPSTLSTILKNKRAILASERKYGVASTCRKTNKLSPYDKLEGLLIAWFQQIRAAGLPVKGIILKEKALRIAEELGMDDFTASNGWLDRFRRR


How the values were obtained:
[1] = target: His6-tagged CENP-B DBD complexed with a 21 base-pair DNA (human) (UniProt P07199); assay: pull-down; His6-tagged CENP-B DBD with 21 base-pair CENP-B box DNA (50 nM) held on Ni-NTA agarose beads; histone complex 50 nM; 20 mM Tris-HCl pH 8.0, 300 mM NaCl, 60 mM imidazole, 0.3% Tween-20, BSA, 4 °C 60 min; washes with 500 mM NaCl, 30 mM imidazole; 16% SDS-PAGE with Coomassie
[2] = target: T1, CENP-B DBD; assay: competition; naked competitor; DBD-DNA complex increases with DNA amount; Buffer of the EMSA and competition assays not in material (6% native PAGE, ethidium bromide); pull-down: 20 mM Tris-HCl pH 8.0, 300 mM NaCl, 60 mM imidazole, 0.3% Tween-20, 0.01 ug/ul BSA, 4 C, 60 min; conditions: protein: recombinant; blunt

percent of H4 in the CENP-B-bound fraction against the CENP-A-H4 complex [1]	Molecule	binding result [2]
4%	H3.1^CATD-H4 complex (from UniProt P68431 1-75; P49450 75-114; P68431 114-136; P62805 1-103)	
	166-bp alpha-satellite DNA, proximal CENP-B box (naked) (dsDNA) DNA 1: ATCTATTTGGACCGCATTGAGGCCTTCGTTGGAAACGGGATTTCTTCATTTCATGCTAGACAGAAGAATTCTCAGTAACTTCTTTGTGCTGTGTGTATTCAACTCACAGAGTGGAACGTCCCTTTGCACAGAGCAGATTTGAAACACTCTTTTTGTAGTCGACGAT DNA 2: ATCGTCGACTACAAAAAGAGTGTTTCAAATCTGCTCTGTGCAAAGGGACGTTCCACTCTGTGAGTTGAATACACACAGCACAAAGAAGTTACTGAGAATTCTTCTGTCTAGCATGAAATGAAGAAATCCCGTTTCCAACGAAGGCCTCAATGCGGTCCAAATAGAT	binds
